# Reference: US5574018A, “Conjugates of vitamin B12 and proteins” (Amgen Inc., priority 1994, dated 1996)
# B1: rrIF: recombinant form of rat IF produced in Chinese hamster ovary cells (protein, UniProt P17267 19-417, looked up)
# Cobalamin binding intrinsic …: STRAQRSCSVPPDQQPWVNGLQLLMENSVTESDLPNPSILIAMNLASTYNLEAQKLLTYQLMASDSADLTNGQLALTIMALTSSCRDPGSKVSILQKNMESWTPSNLGAESSSFYGPALAILALCQKNSEATLPIAVRFAKTLMMESSPFSVDTGAVATLALTCMYNRIPVGSQENYRDLFGQALKVIVDNISLRIKADGIIGDIYSTGLAMQALSVTPEQPTKEWDCEKTMYTILKEIKQGKFQNPMSIAQILPSLKGKTYLDVPQVTCGPDHEVPPTLTDYPTPVPTSISNITVIYTINNQLRGVDLLFNVTIEVSVKSGSVLLAVLEEAQRRNHMFKFETTMTSWGLIVSSINNIAENVKHKTYWEFLSGKTPLGEGVAYYIPFNYEHITANFTQY
# B2: Example 2: conjugate of 5'-O-[glutaroyl]cyanocobalamin with G-CSF via the N-hydroxysuccinimide derivative (conjugate, UniProt P09919 31-207, looked up)
# Granulocyte …: TPLGPASSLPQSFLLKCLEQVRKIQGDGAALQEKLVSECATYKLCHPEELVLLGHSLGIPWAPLSSCPSQALQLAGCLSQLHSGLFLYQGLLQALEGISPELGPTLDTLQLDVADFATTIWQQMEELGMAPALQPTQGAMPAFASAFQRRAGGVLVASHLQSFLEVSYRVLRHLAQP
# modifications: cyanocobalamin conjugate
# notes: conjugate of 5'-O-[glutaroyl]cyanocobalamin with G-CSF via the N-hydroxysuccinimide derivative
# B3: Example 7: conjugate of 5'-O-[glutaroyl]cyanocobalamin with G-CSF via 12-aminododecylamido-dithiopyridylpropionate (conjugate, UniProt P09919 31-207, looked up)
# Granulocyte …: B2 Granulocyte …
# modifications: cyanocobalamin conjugate via disulfide linker
# notes: conjugate of 5'-O-[glutaroyl]cyanocobalamin with G-CSF via 12-aminododecylamido-dithiopyridylpropionate
# B4: Example 10: conjugate with G-CSF via N-hydroxysuccinimidyl ester of 5'-O-[glutaroyl]cyanocobalamin-8-aminocaprylic acid (conjugate, UniProt P09919 31-207, looked up)
# Granulocyte …: B2 Granulocyte …
# modifications: cyanocobalamin conjugate via aminocaprylic linker
# notes: conjugate with G-CSF via N-hydroxysuccinimidyl ester of 5'-O-[glutaroyl]cyanocobalamin-8-aminocaprylic acid
# B5: Example 8: conjugate of 5'-O-[glutaroyl]cyanocobalamin with a polyethylene glycol derivative of G-CSF (conjugate, UniProt P09919 31-207, looked up)
# Granulocyte …: B2 Granulocyte …
# modifications: PEG; cyanocobalamin conjugate
# notes: conjugate of 5'-O-[glutaroyl]cyanocobalamin with a polyethylene glycol derivative of G-CSF
# Experiments:
# Porcine IF = molecular target: T1, Porcine IF (Sus scrofa, UniProt A0A8D1ENZ1); assay: Intrinsic factor binding affinity, competition binding assay with 57Co-cyanocobalamin (Scatchard); details: for Kd: association constant, porcine IF, conjugate 123 nM, 30 min
# T1 construct: purchased Sigma Chemical Company, St. Louis, Mo
# Protocol: The binding affinity of conjugates of VB12 and therapeutic proteins to intrinsic factor (IF) was determined using a competition binding assay based on the procedure described by Mathan et al. in the Journal of Clinical Investigation, Volume 54, pages 598-608 (1974). The assay was conducted in phosphate buffered saline (PBS) containing 1 mM calcium chloride, 0.5 mM magnesium chloride and 1% by weight of bovine serum albumin (BSA) devoid of IF and cyanocobalamin (Sigma Chemical Company, St. Louis, Mo.). Porcine IF (final concentration 1.845 nM) was added to a large excess of the VB12 -protein conjugate (123 nM), together with a range of concentrations of ^57 Co-cyanocobalamin ([…] to 12.3 nM), specific activity 10-20 μCi/μg, in a final volume of 600 μl of PBS. The solution was vortexed and incubated at room temperature for thirty minutes, before adding 1 ml of freshly prepared dextran-coated charcoal (0.5% by weight of charcoal, 0.1% by weight of dextran in PBS) at 4° C. After incubation for ten minutes, the mixture was centrifuged for fifteen minutes at 1000×G (2500 rpm) and 4° C. in a IEC Centra-8R benchtop centrifuge, VWR Scientific, South Plainfield, N.J. The supernatant was decanted from the resulting pellet and assayed in a Cobra 2000 Gamma counter (Hewlett-Packard, Palo Alto, Calif.) to determine the amount of bound ^57 Co-cyanocobalamin.
# The ratio of bound to free ^57 Co-cyanocobalamin versus the bound concentration of ^57 Co-cyanocobalamin was plotted according to the method of Scatchard, Annals of the New York Academy of Science, Volume 51, pages 660-672 (1949).
# -Slope=-Kapp =-KL /(1+Kc [Lf ])
# Kc =binding affinity of conjugate
# KL =binding affinity of cyanocobalamin
# [Lf ]=concentration of unbound conjugate
# The use of a large excess of the conjugate permitted the value of [Lf ] to be treated as a constant (123 nM).
# [1] = test system: exhypoxic polycythemic mice; assay: In vivo exhypoxic polycythemic mouse assay of VB12-EPO conjugates; details: i.p., vs EPO
# Protocol: The hematopoietic activity of EPO after conjugation to 5'-O-[glutaroyl]cyanocobalamin was determined in vivo in exhypoxic polycythemic mice using the procedure of Cotes and Bingham described in Nature, Volume 191, pages 1065-1067 (1961).
# The dilution of the complexes prior to intraperitoneal (i.p.) injection was based on the protein content derived from the A280 of the sample.
# [2] = Stupperich and Nexo 1991; cited from earlier work
# [3] = Binding analysis of recombinant rat IF (rrIF)
# mouse bone marrow cells = assay: In vitro thymidine uptake assay of VB12-G-CSF conjugates; format: cell-based; details: for Biological Activity of Conjugate, % activity compared to nonconjugated protein: vs G-CSF
# Protocol: The bioactivity of VB12 -G-CSF in vitro after conjugation to 5'-O-[glutaroyl]cyanocobalamin was determined by measuring the stimulated in vitro uptake of ^3 H-thymidine into mouse bone marrow cells.
# Bone marrow cells were collected from the hind legs of female Balb/C mice by flushing the bone with PBS. The cells were purified on a Ficoll-Paque density gradient (Pharmacia) and cultured in McCoys' 5A medium with 10% fetal bovine serum (FBS), 10 mM sodium pyruvate, 1×minimum essential medium (MEM) amino acids, 40 micromolar (μM) of essential amino acids, 0.04% by weight of sodium bicarbonate, 1×MEM vitamin solution, 10 mM L-glutamine and 0.005% by weight of gentamicin sulfate. After incubation for two hours at 37° C. under a 5% carbon dioxide-containing atmosphere, non-adherent cells were collected in the supernatant and the number of viable cells was counted in a hemocytometer.
# A standard curve was prepared over a range from 0.07 to 1500 Units of G-CSF per milliliter (U/ml), and the complexes were diluted to about 0.3 to 30 U/ml prior to being assayed. To a 96-well plate was added, in triplicate, 100 μl of the standard or test material and 100 μl of culture medium containing 4×10^4 non-adherent mouse bone marrow cells. After incubating the plates for sixty eight hours at 37° C. under a 5% carbon dioxide atmosphere, 0.5 μCi of thymidine [methyl-3H], 20 Ci/mmol (NEN, Boston, Mass.) was added to each well. The plates were incubated as before for an additional five hours. The cells were collected on filter paper, rinsed with water (ten times) and ethanol (one time), and then counted in Biofluor scintillation fluid in a beta plate scintillation counter (LKB, Piscataway, N.J., Model 1205-001).
# The bioactivity of the test material, in Units per milligram (U/mg), was determined from the standard curve of the G-CSF stimulated uptake of thymidine [methyl-^3 H].
# T1 sequence (A0A8D1ENZ1 29-425): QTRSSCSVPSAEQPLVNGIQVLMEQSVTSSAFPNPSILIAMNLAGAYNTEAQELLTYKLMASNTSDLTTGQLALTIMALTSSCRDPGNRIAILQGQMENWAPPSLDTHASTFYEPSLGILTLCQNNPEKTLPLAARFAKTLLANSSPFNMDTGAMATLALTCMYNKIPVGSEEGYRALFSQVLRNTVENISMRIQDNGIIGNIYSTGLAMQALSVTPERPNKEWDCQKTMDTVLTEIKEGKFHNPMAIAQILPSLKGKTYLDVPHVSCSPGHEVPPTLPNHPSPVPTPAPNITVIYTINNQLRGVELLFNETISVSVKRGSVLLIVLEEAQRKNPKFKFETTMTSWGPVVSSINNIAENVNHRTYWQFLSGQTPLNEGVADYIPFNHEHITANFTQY
molecule,measurement,setting,value
5'-O-[glutaroyl]-cyanocobalamin [Example 1],Kd,Porcine IF,1.35 nM
"Example 13: conjugate of 5'-O-[glutaroyl]cyanocobalamin-adipic-1,6-dihydrazide with periodate-treated EPO (through sialic acids)","Biological Activity of Conjugate, % activity compared to nonconjugated protein",[1],33 ± 14%
"native human IF: native human intrinsic factor, literature value",binding affinity (Ka) of native human IF,[2],2e+10 M⁻¹
B1,binding affinity (Ka) of rrIF,[3],8.58e+09 M⁻¹
B2,Kd,Porcine IF,2.22 nM
B3,Kd,Porcine IF,4 nM
same,"Biological Activity of Conjugate, % activity compared to nonconjugated protein",mouse bone marrow cells,33%
B4,Kd,Porcine IF,1.89 nM
same,"Biological Activity of Conjugate, % activity compared to nonconjugated protein",mouse bone marrow cells,60%
B5,retention of non-conjugated VB12 binding affinity,Porcine IF,1.6%
same,Kd,Porcine IF,10.8 nM
same,"Biological Activity of Conjugate, % of G-CSF",mouse bone marrow cells,4.4 % of G-CSF
same,"Biological Activity of Conjugate, % of PEG-G-CSF",mouse bone marrow cells,38 % of PEG-G-CSF
